Results taken from patent US20140377216A1, “ANTICANCER FUSION PROTEIN” (ADAMED SP. Z.O.O., priority 2011, published 2014).

Tested on: HCT116
Test: MTT cytotoxicity test on HCT116
Type: cell-based, human
Conditions: continuous incubation over 72 h

B1: Ex. 3^a: fusion protein SEQ. No. 3: (TRAIL121-281)-MMP-UROKIN-(SEQ. No. 35, synthetic 15-amino acids lytic peptide) (protein)
chain: RVAAHITGTRGRSNTLSSPNSKNEKALGRKINSWESSRSGHSFLSNLHLRNGELVIHEKGFYYIYSQTYFRFQEEIKENTKNDKQMVQYIYKYTSYPDPILLMKSARNSCWSKDAEYGLYSIYQGGIFELKENDRIFVSVTNEHLIDMDHEASFFGAFLVGPLGLAGRVVRKLLLRLLKKLLRLLK
modifications: synthesized, fusion protein comprising: a fragment of TRAIL protein, synthetic 15-amino acids lytic peptid and cleavage site sequences recognized by urokinase and metalloprotease.
- IC50: 1.8785 µg/mL
